Reference: patent US20240174750A1 (VIRTUOSO BINCO, published 2024)
Where a chain is given by its changes, count along the chain named. Each block holds one binder with its values, some of them ahead of it.

How the values were obtained:
[1] = target: T1, CD47 on the surface of CD47+ cells (human, UniProt Q08722 19-323); experiment: flow cytometry, competition with SIRPA-mIgG2a on CD47+ tumor cells; IC50 as grade, legend the 8th table, row 26
T1 construct: whole, on cells; also called CD47+ cell lines; CD47 on Raji cells, HCT-15 cells, human red blood cells (RBCs), human platelets
Method: Tumor cells were harvested, centrifuged, and then resuspended in FACS buffer (PBS plus 2% FBS) at a concentration of 2×10⁶ cells/mL. 100 μL of the cell suspension was dispensed into each well of a 96-well plate. The plate was centrifuged for 5 min and 300×g, and the supernatants were discarded. […] After washing twice with FACS buffer, the plates were resuspended with 300 μL FACS buffer and analyzed by flow cytometry.

[2] = target: T1, CD47 on the surface of CD47+ cells; experiment: flow cytometry on CD47+ cell lines; EC50 as grade, legend the 7th table, row 26
Method: Antibody binding to CD47+ cell lines was quantified by flow cytometry. Harvested cells were centrifuged at 2000 rpm for 5 min, resuspended in 10-15 mL ice-cold culture medium, and then counted. Cells were resuspended in blocking buffer (PBS plus 2% FBS) at a concentration of 3×10⁶ cells/mL. 100 μL of the cell suspension was dispensed into each well of a 96-well plate. Purified antibodies were diluted to the desired concentrations with blocking buffer and 100 μL of diluted antibodies were added to the well and incubated for 1 hour at 4° C. The cells were then washed 3 times with PBS plus 2% FBS. […] The cells were then washed 3 times with 200 μL PBS by centrifuging at 2000 rpm for 5 min. After the last wash, the cells were resuspended in 300 μL cold PBS and analyzed on a FACSVerse™ (BD Biosciences) flow cytometer.

[3] = target: T2, extracellular domain (ECD) of human CD47 (19aa-139aa) with C-terminal 6xHis tag (human, UniProt Q08722 19-139); experiment: ELISA, coated recombinant CD47; EC50 as grade, legend the 6th table, row 26
T2 construct: also called recombinant CD47; recombinant human CD47
Method: A 96-well plate was coated overnight at 4° C. with 1 μg/ml recombinant CD47. After washing 3 times, the plate was blocked with 300 μL 1% BSA in PBST at 37° C. for 1 hour. Serially diluted antibodies were added and incubated at 37° C. for 1 hour. The plate was then washed 4 times with PBST and incubated with 1:5000 diluted 2nd antibody (Sigma, Cat #A0293) at 37° C. for 1 hour.

[4] = target: T2, extracellular domain (ECD) of human …; experiment: ELISA on recombinant human CD47; legend: NB: not bound
[5] = target: T2, extracellular domain (ECD) of human …; experiment: ELISA, recombinant human CD47; EC50 as grade, legend the 11th table, row 38

IC50 [1]: 1 to 5 nM
EC50 [2]: 0.1 to 0.5 nM
EC50 [3]: 0.1 to 0.5 nM
B3: R.19H7 (antibody, human IgG1, kappa, V domains shown)
VH: QEQLKESGGGLVTPGGTLTLTCTASGFTISSYHMCWVRQAPGKGLEWIGCIYPNNDFTWYATWAKGRFTISKTSSTTVDLRMTTPTTEETATYFCARASGNAYNLLDLWGQGTLVTVSS
VL: AIVMTQTPASVSVAVGGSVTINCQSSESVYRDNCLGWFQQKPGQPPKLLIYRASTLASGVPSRFKGSGSGTQFTLTISDVVSDDAATYYCAGYKSTITDGTAFGGGTEVVVKR
notes: Chimeric: rabbit variable domains, human IgG1 and human kappa constant regions

binding result [4]: no binding
B6: hu.18B9.3i HC_D95A (antibody, name in Kabat numbering, V domains shown)
VH: EVQLVESGGGLVQPGGSLRLSCAASGFSFNSGYMSWVRQAPGKGLEWIASIYAGSSGKTYYADWAKGRFTISKTSSKTTVYLQMNSLRAEDTAVYYCARASGGTYYTDYLYLWGQGTLVTVSS
VL: DIQMTQSPSSLSASVGDRVTITCRASEGISSYLSWYQQKPGKAPKLLIYKASTLTSGVPSRFSGSGSGTDFTLTISSLQPEDFATYYCQSTYGSSGSSGYGAAFGGGTKVEIK
notes: Alanine scan variant of hu.18B9.3i; Kabat numbering

binding result [4]: no binding
B7: hu.18B9.3i HC_D100c_A (antibody, V domains shown)
VH: B6 VH with A100D, D108A
VL: B6 VL
notes: as for B6

EC50 [5]: 0.01 to 0.5 nM
B8: hu.18B9.3i LC_Y95e_A (antibody, V domains shown)
VH: B6 VH with A100D
VL: B6 VL with Y100A
notes: as for B6

binding result [4]: no binding
B9: hu.18B9.3i HC_Y100d_A (antibody, V domains shown)
VH: B6 VH with A100D, Y109A
VL: B6 VL
notes: as for B6

binding result [4]: no binding
B10: hu.18B9.3i HC_G98A (antibody, name in Kabat numbering, V domains shown)
VH: B6 VH with A100D, G103A
VL: B6 VL
notes: as for B6

EC50 [5]: 0.01 to 0.5 nM
B11: hu.18B9.3i LC_S95c_A (antibody, V domains shown)
VH: B6 VH with A100D
VL: B6 VL with S98A
notes: as for B6

EC50 [5]: 0.01 to 0.5 nM
B12: hu.18B9.3i LC_T91A (antibody, name in Kabat numbering, V domains shown)
VH: B6 VH with A100D
VL: B6 VL with T91A
notes: as for B6

EC50 [5]: 0.01 to 0.5 nM
B13: hu.18B9.3i LC_S95A (antibody, name in Kabat numbering, V domains shown)
VH: B6 VH with A100D
VL: B6 VL with S95A
notes: as for B6

EC50 [5]: 0.01 to 0.5 nM
B14: hu.18B9.3i LC_Y92A (antibody, name in Kabat numbering, V domains shown)
VH: B6 VH with A100D
VL: B6 VL with Y92A
notes: as for B6

binding result [4]: no binding
B15: hu.18B9.3i HC_Y101A (antibody, name in Kabat numbering, V domains shown)
VH: B6 VH with A100D, Y111A
VL: B6 VL
notes: as for B6

EC50 [5]: 0.01 to 0.5 nM
B16: hu.18B9.3i LC_S95b_A (antibody, V domains shown)
VH: B6 VH with A100D
VL: B6 VL with S97A
notes: as for B6

binding result [4]: no binding
B17: hu.18B9.3i HC_G97A (antibody, name in Kabat numbering, V domains shown)
VH: B6 VH with A100D, G102A
VL: B6 VL
notes: as for B6

IC50 [1]: 0.1 to 1 nM
EC50 [2]: 0.1 to 0.5 nM
EC50 [3]: 0.1 to 0.5 nM
B23: R.20H1 (antibody, human IgG1, kappa, V domains shown)
VH: QEQLVESGGGLVKPGASLTLTCKASGFSFSSGYYMCWVRQAPGKGLEWIGCIYVRSDSTYYASWAKGRFTISKASSTTVTLQMTSLTAADTATYFCARGVTGDSYRFNFWGPGTLVTVSS
VL: DVVMTQTPASVEAAVGGTVTIKCQASQSISNELSWYQQKSGQPPKLLIYRASTLESGVPSRFKGSGSGTEFTLTISDLESADAATYYCQSTYYGTSYGNAFGGGTEVVVKR
notes: as for B3

The remaining lines, values behind:

B1: M.20B10E9 (antibody, human IgG1, kappa, V domains shown)
VH: EVQLQQSGAELVRPGASVKLSCTASGFNIEDTYMHWVKQRPEQGLEWIGRIDPANGKTKSDPKFQGKATITTDTSSNTAYLQLSSLTSEDTAVYYCAKGDGYYVGGLDYWGQGTTLTVSS
VL: DIQMNQSPSSLSASLGDTITITCHASQNIHVWLSWYQQKPGNIPKLLIYKASNLHTGVPSRFSGSGSGTGFTLTISSLQPEDIATYYCQQGQSYPYTFGGGTKLEIKR
notes: Chimeric: mouse variable domains, human IgG1 and human kappa constant regions
IC50 [1]: 0.1 to 1 nM
EC50 [2]: 0.1 to 0.5 nM
EC50 [3]: 0.01 to 0.1 nM

B2: M.30A5C6 (antibody, human IgG1, kappa, V domains shown)
VH: B1 VH with R13K, K57N, S60Y, I70V, T72A, Y95C, K98R, Y102H, D108N, T115S
VL: B1 VL with H30N, S93N
notes: as for B1
IC50 [1]: 0.1 to 1 nM
EC50 [2]: 0.1 to 0.5 nM
EC50 [3]: 0.01 to 0.1 nM

B4: R.14G4 (antibody, human IgG1, kappa, V domains shown)
VH: B3 VH with S30T, D56G, T62S, R81K, T84S, T90M, A98G, A102S, L105Q
VL: B3 VL with V13A, A14T, V15L, R52K
notes: as for B3
IC50 [1]: 1 to 5 nM
EC50 [2]: > 5 nM
EC50 [3]: > 0.5 nM

B5: M.95D4A11 (antibody, human IgG1, kappa, V domains shown)
VH: QVQLQQPGAELVRPGASVKLSCKASGYTFTSYWMNWVKQRPEQGLEWIGSIDPYDSETHYNQKFKDKAILTVDKSSSTAYMQLSSLTSEDSAVYYCARGRGYAMDYWGQGTSVTVSS
VL: DIQMTQSPASLSASVGETVTITCRASGNIHNYLAWYQQKQGKSPQLLVYNAKTLADGVPSRFSGSGSGTQYSLKINSLQPEDFGSYYCQHFWSTPPTFGGGTKLEIKR
notes: as for B1
IC50 [1]: 0.1 to 1 nM
EC50 [2]: 0.1 to 0.5 nM
EC50 [3]: 0.01 to 0.1 nM

B18: R.9B11 (antibody, human IgG1, kappa, V domains shown)
VH: QEQLEESGGDLVKPEGSLTLTCTASGFSFSSYWMAWVRQAPGKGLEWIACIYIGSGSGTTYYASWAKGRFTISKTSSTTVTLQMTSLTAADTAIYFCARWAGSDGHFTLWGPGTLVTVSL
VL: ALVMTQTPASVEAAVGGTVTINCQASQSINNLLAWYQQKPGQRPKLLIYDASDLASGVSSRFKGSGSGTEYTLTISGVQSADAATYYCQGYFYGSSVDLVFGGGTEVVVKR
notes: as for B3
IC50 [1]: 1 to 5 nM
EC50 [2]: 0.5 to 5 nM
EC50 [3]: 0.01 to 0.1 nM

B19: M.69H1H9 (antibody, human IgG1, kappa, V domains shown)
VH: EVQLQQSGPELVKPGASVKMSCKTSGYTFTEYTIHWVKQSHEKSLEWIGSINPNNGLFRYNQKFKGKATLTVDKSSSTAYMELRSLTSEDSAVYYCARDYGFGYSDYWGQGTTLTVSS
VL: DIQMIQSPSSMFASLGDRVSLSCRASQGIRGNLDWYQQKPGGTIKLLIYSTSNLNSGVPSRFSGSGSGSDYSLTISSLESEDFADYYCLQRNAFPWTFGGGTKLEIKR
notes: as for B1
IC50 [1]: 0.1 to 1 nM
EC50 [2]: 0.1 to 0.5 nM
EC50 [3]: 0.01 to 0.1 nM

B20: R.15G10 (antibody, human IgG1, kappa, V domains shown)
VH: QSLEESGGRLVTPGTPLTLTCTASGFTISSYHMNWVRQAPGEGLEWIGIIYVGSGNADYASWAKGRFTISKASTTVDLKITSPTTEDTATYFCARGPTNTYPTYFNLWGPGTLVTVSS
VL: AFELTQTPSSVEAAVGGTVTIKCQASRSITSYLAWYQHKPGQPPTLLIYAASNVASGVSSRFKGSRSGTEYTLTISDLESADAATYYCQSYYAISTNTFGGGTEVVVKR
notes: as for B3
IC50 [1]: 0.1 to 1 nM
EC50 [2]: 0.5 to 5 nM
EC50 [3]: 0.01 to 0.1 nM

B21: R.13A2 (antibody, human IgG1, kappa, V domains shown)
VH: QSLEESGGDLVKPGASLTVTCTASGFSFSSYYYVCWVRQAPGKGLEWIACIYAGSSGDTYYASWAKGRFTISKTSSTTVTLQMTSLTAADTATYFCARGYTGYSYQFNFWGPGTLVTVSS
VL: DVVMTQTPASVEAAVGGTVTIKCQASQSISNELSWYQQKPGQPPKLLIYRASTLESGVPSRFKGSGSGTEFTLTISDLESADAATYYCQCTYITYGNAFGGGTEVVVKR
notes: as for B3
IC50 [1]: 0.1 to 1 nM
EC50 [2]: 0.5 to 5 nM
EC50 [3]: > 0.5 nM

B22: R.1B11 (antibody, human IgG1, kappa, V domains shown)
VH: QSLEESGGRLVTPGTPLTLTCTASGFSLNSYHMSWVRQAPGEGLEWIGIIYADTGNADYASWTKGRFTISKASTTVELRITSPTSEDTATYFCARGPTNTYPTYFALWGPGTLVTVSS
VL: AFELTQTPSSVEAAVGGTVTIKCQASQSITTYLAWYQQKPGQPPKLLIYGASNLESGVPSRFKGSRSGTEYTLTISDLESADAATYYCQSYYAISKSAFGGGTEVVVKR
notes: as for B3
IC50 [1]: 0.1 to 1 nM
EC50 [2]: 0.1 to 0.5 nM
EC50 [3]: 0.01 to 0.1 nM

B24: R.1H3 (antibody, human IgG1, kappa, V domains shown)
VH: QSLEESGGDLVKPGASLTLTCTASGFSFSSGYYMCWVRQAPGKGLEWIACIYMRSGDTYLASWAKGQFTISKTSSTTVTLQMTSLTAADTATYFCGRGGTSYALNLWGQGTLVTVSS
VL: DVVMTQTPASVSEPVGGTVTINCQASQSISNECSWYQQKPGQPPKLLIYRASTLESGVPSRFSGSGSGTEFTLTISDLESADAATYYCQSTYYGTTGNTFGGGTEVVVKR
notes: as for B3
IC50 [1]: 0.1 to 1 nM
EC50 [2]: 0.1 to 0.5 nM
EC50 [3]: > 0.5 nM
